Test results published in article PMC3508374 (Molecular microbiology, 2012).
Residue numbers refer to the chain shown, from its start. In names and notes the source's numbering stands.

B1: Bacillus subtilis Fur (ferric uptake regulator), wild type (natural protein, UniProt P54574 1-149, looked up)
chain: MENRIDRIKKQLHSSSYKLTPQREATVRVLLENEEDHLSAEDVYLLVKEKSPEIGLATVYRTLELLTELKVVDKINFGDGVSRYDLRKEGAAHFHHHLVCMECGAVDEIEEDLLEDVEEIIERDWKFKIKDHRLTFHGICHRCNGKETE
B2: Bacillus subtilis Fur H37A (site 2 mutant) (natural protein, UniProt P54574 1-149, looked up)
chain: B1 chain with H37A
B3: Bacillus subtilis Fur H96A (site 3 mutant) (natural protein, UniProt P54574 1-149, looked up)
chain: B1 chain with H96A
B4: Bacillus subtilis Fur H95A (site 2 mutant) (natural protein, UniProt P54574 1-149, looked up)
chain: B1 chain with H95A
B5: Bacillus subtilis Fur H97A (site 2 mutant) (natural protein, UniProt P54574 1-149, looked up)
chain: B1 chain with H97A
B6: Bacillus subtilis Fur H132A (site 3 mutant) (natural protein, UniProt P54574 1-149, looked up)
chain: B1 chain with H132A

Target: the molecule itself
Assay: SEC

Protein | stoichiometry N
B1 | 2
B2 | 2
B3 | 2
B4 | 2
B5 | 2
B6 | 2
